Assay results reported in publication PMC3601010 (BMC Biochemistry, 2013).
Ends that are not written are not given here.

Columns and labels:
α-thrombin [1] = molecular target: T1, α-thrombin (UniProt P00734 364-622); test: ELISA; competition: HCII 1-75 immobilised on microtiter wells; competitor peptides added with 5 nM α-thrombin; ratio of absorbance with and without competitor; IC50 by linear regression of log-transformed plots; details: both partners purified
α-thrombin [2] = molecular target: T1, α-thrombin; test: cell-based or functional assay
α-thrombin [3] = molecular target: T1, α-thrombin; test: SPR; competition: BIAcore X, 25°C; biotinylated HCII 1-75 on streptavidin-coated chip; peptides combined with 250 nM thrombin immediately before flowing over the chip; Ki from IC50 and the KD of 340 nM; details: both partners purified

B1: HCII 54-75 (synthetic peptide containing residues 54-75 of human HCII and a nonapeptide N-terminal tag) (peptide)
chain: GEEDDDYLDLEKIFSEDDDYID
modifications: not fully specified (N-terminus); ends and bridges not checked; also: nonapeptide N-terminal tag, unmodified amino terminus
For B1, the IC50 (α-thrombin [1]) was 110 µM, the “fold reduction of the apparent second-order rate constant of inhibition of 14 nM thrombin by 140 nM plasma-derived HCII with 55 μg/mL standard heparin, 250 μM peptide (Figure 5A)” value (α-thrombin [2]) was 1.6 fold and the “fold reduction of the apparent second-order rate constant of inhibition of thrombin by plasma-derived HCII with 1.4 μM dermatan sulfate, 250 μM peptide (Figure 5B)” value (α-thrombin [2]) was 1.6 fold. The Ki (α-thrombin [3]) was 8.5 µM and the “Ki of equimolar HCII 54-75 and HCII 1-53” value (α-thrombin [3]) was 13 µM.
